According to publication PMC9995687:

Target: Human STIM1, N-terminally ECFP-tagged, Q13586-1
Assay: FRET microscopy (Eapp) in cells
Conditions: read off a plot

Row | Substance | response (+TG (1 μM), +UV, n = 9, parent: est. 0.11) | response (+TG (1 μM), -UV, n = 9, parent: est. 0.11) | response (-TG, +UV, n = 9, parent: est. 0.010) | response (-TG, -UV, n = 9, parent: est. 0.008) | response (+TG (1 μM), +UV, n = 8) | response (+TG (1 μM), -UV, n = 8) | response (-TG, +UV, n = 8) | response (-TG, -UV, n = 8)
1 | Orai1 A137Bpa, C-terminally YFP-labelled (from UniProt Q96D31-1) L273D | 0.004 Eapp | 0.002 Eapp | 0.003 Eapp | 0.006 Eapp |  |  |  | 
2 | Human Orai1 wild-type, C-terminally YFP-labelled (from UniProt Q96D31-1) A137Bpa |  |  |  |  | 0.11 Eapp | 0.11 Eapp | 0.01 Eapp | 0.008 Eapp
